The values below come from US12491259B2, “Anti-variable MUC1* antibodies and uses thereof” (Minerva Biotechnologies Corporation, priority 2022, dated 2025).

Test [1] concerns high antigen (MUC1*) expressing cancer cells. In words: PrestoBlue plate reader killing assays over multiple cancer sub-types (FIGS. 38A-45D). It is filed as cell-based. As to conditions: breast (T47D-MUC1*) and pancreatic (HPAF II-MUC1*) cancer cells. The method, then: Therefore, although seldom done, it is critically important to test anti-cancer therapeutics against both the low antigen expressing early cancer cells and the later cancer cells that express high levels of the targeted antigen. In FIGS. 38A-45D, the ability of MNC2-ADCs and MN20A10-ADCs to kill multiple cancer sub-types was tested, where the tumors were either low-medium antigen expressing cancer cells or high antigen expressing cancer cells. […] The low expressing cancer cells were killed by treatment with either MNC2-ADC or MN20A10-ADC in the high nanomolar range of ADC, which is considered druggable. The cancer cells that expressed high levels of MUC1* were killed with IC50s in the single digit nanomolar range. […]
Another method of measuring the killing activity of mAb MNC2-ADCs and mAb MN20A10-ADCs against target cancer cells including T47D breast cancer cells NCI-H1975 non-small cell lung cancer cells and HPAFII pancreatic cancer cells is to use the PrestoBlue live/dead cell assay (ThermoFisher). […] After 72 hour-120 hour incubation in a 37° C./5% CO2 incubator, cell viability was measure by fluorescence using the PrestoBlue HS assay (ThermoFisher). […] Fluorescence (Ex 560 nm/Em 590 nm) was recorded after 30-90 min. incubation using a Tecan plate reader. Percentage viability was determined by PrestoBlue HS staining and normalized to 1 μM taxol treated cells. […]

For test [2], the system named is HPAF II wild-type (WT) pancreatic cancer cells. Put plainly: xCELLigence real-time killing assay (impedance). In kind it is cell-based, human. The settings on record: for ADC concentration at which essentially all the tumor cells were killed: readout 120 hours post ADC addition. As to the method: In this assay, impedance is measured in real-time. When the adherent cancer cells are killed and come off of the electrode surface, impedance (insulation) decreases. HPAF II wild-type (WT) pancreatic cancer cells were plated onto multi-electrode-well plates at 5,000 cells per well and allowed to adhere and grow for 24 hours before the addition of ADCs. Either MNC2-MMAE, DAR 4.1, MN20A10-MMAE, DAR 5.8, MNC2-MMAF, DAR 3.7, MN20A10-MMAF, DAR 3.8, MNC2-Deruxtecan, DAR 7.2, or MN20A10-Deruxtecan, DAR 4.6, was then added to the cancer cells. […] Taxol and Triton are added as the positive killing control. […] Taxol and Triton are added as the positive killing control. […] As indicated, essentially all the pancreatic tumor cells were killed at an MNC2-MMAE concentration of 56 nM. […] As indicated, essentially all the tumor cells were killed at an MNC2-MMAF concentration of 56 nM. […] Significant killing is measured at 120 hours at a concentration of about 56 nM. […] As indicated, essentially all the tumor cells were killed at an MN20A10-MMAE concentration of 56 nM-19 nM. […] As indicated, essentially all the tumor cells were killed at an MN20A10-MMAF concentration of 56 nM.
To assess real-time killing of target cancer cells including breast cancer cells (T47D), non-small cell lung cancer cells (NCI-H1975) and pancreatic cancer cells (HP AF II) assays were performed on an xCELLigence RTCA MP Instrument (Agilent). Target Cancer cells were seeded onto a multi-electrode well plate at a density of 5000 cells/well (100 μL of a 50,000 cells/mL stock) and incubated for 24 hr in a 37° C./5% CO2 incubator. mAb MNC2 ADCs or mAb MN20A10-ADCs were prepared as a 2× solution in corresponding growth media and 100 μL of each concentration was added to target cells. As a positive control (100% cell killing) cells were treated with either 1% triton or 1 μM Taxol instead of ADC. After 40-120 hours incubation in a 37° C./5% CO2 incubator cell killing was assessed. In this assay, impedance is measured in real-time. […]

B1: MN20A10-MMAF (conjugate)
VH: QVQLVESGGGLVKPGGSLRLSCAASGFTFSTYAMSWIRQAPGKGLEWVASIGRAGSTYYSDSVKGRFTISRDNAKNSLYLQMNSLRAEDTAVYYCARGPIYNDYDEFAYWGQGTLVTVSS
VL: EIVLTQSPATLSLSPGERATLSCKSSQSVLYSSNQKNYLAWYQQKPGQAPRLLIYWASTRESGIPARFSGSGSGTDFTLTISSLEPEDFAVYYCHQYLSSLTFGGGTKVEIKR
With B1, in test [1], the “concentrations at which cells engineered to express more MUC1* were killed” value is “very low nanomolar concentrations”. Moreover, in test [2], the “ADC concentration at which essentially all the tumor cells were killed” value was 56 nM.

B2: MNC2-MMAF (conjugate)
VH: EVQLVESGGGLVKPGGSLRLSCAASGFTFSGYAMSWVRQAPGKGLEWVSTISSGGTYIYYPDSVKGRFTISRDNAKNSLYLQMNSLRAEDTAVYYCARLGGDNYYEYFDVWGKGTTVTVSS
VL: DIVLTQSPASLAVSPGQRATITCRASKSVSTSGYSYMHWYQQKPGQPPKLLIYLASNLESGVPARFSGSGSGTDFTLTINPVEANDTANYYCQHSRELPFTFGGGTKVEIKRT
As for B2, the “concentrations at which cells engineered to express more MUC1* were killed” value in test [1] is “very low nanomolar concentrations”. Moreover, the “ADC concentration at which essentially all the tumor cells were killed” value in test [2] was found to be 56 nM.

B3: MNC2-Deruxtecan (conjugate)
VH: B2 VH
VL: B2 VL
In the case of B3, the “concentration with significant killing” value in test [2] (at 120 hours) is “about 56 nM”.
